In paper doi:10.1101/2024.04.26.591398 (2024):

Biological target: T1, FITC-casein (FITC label (FITC-casein))
T1 chain: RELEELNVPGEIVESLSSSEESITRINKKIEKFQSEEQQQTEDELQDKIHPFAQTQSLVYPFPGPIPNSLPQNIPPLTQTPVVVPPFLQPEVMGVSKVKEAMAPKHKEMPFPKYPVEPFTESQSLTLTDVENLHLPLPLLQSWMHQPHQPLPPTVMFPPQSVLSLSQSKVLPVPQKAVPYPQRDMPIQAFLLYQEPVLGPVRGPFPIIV
Test: FP; competition: Ydj1 dissociating FITC-casein from Hsp104 R366E, ATPγS

- IC50: ~20 µM
B1: Ydj1 (natural protein)
chain: MVKETKFYDILGVPVTATDVEIKKAYRKCALKYHPDKNPSEEAAEKFKEASAAYEILSDPEKRDIYDQFGEDGLSGAGGAGGFPGGGFGFGDDIFSQFFGAGGAQRPRGPQRGKDIKHEISASLEELYKGRTAKLALNKQILCKECEGRGGKKGAVKKCTSCNGQGIKFVTRQMGPMIQRFQTECDVCHGTGDIIDPKDRCKSCNGKKVENERKILEVHVEPGMKDGQRIVFKGEADQAPDVIPGDVVFIVSERPHKSFKRDGDDLVYEAEIDLLTAIAGGEFALEHVSGDWLKVGIVPGEVIAPGMRKVIEGKGMPIPKYGGYGNLIIKFTIKFPENHFTSEENLKKLEEILPPRIVPAIPKKATVDECVLADFDPAKYNRTRASRGGANYDSDEEEQGGEGVQCASQ
